The results in this text go back to the nanobody polyreactivity screen of Harvey et al. (2022).

A short description of this data set: yeast display, Sf9 membrane polyspecificity reagent, FACS + sequencing; frameworks hold sequencing errors. The procedure, abridged: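 Synthetic nanobody libraries on Saccharomyces cerevisiae BJ5465 were galactose-induced for 36–48 hours, stained 1 hour at 4 °C with 10% biotinylated, detergent-solubilized Sf9 membrane reagent and enriched on streptavidin microbeads. FACS then separated cells into low and high (top ~1%) gates by anti-HA (expression) and streptavidin (reagent binding) fluorescence. Genes were colony-PCR amplified, MiSeq 2 × 250 sequenced and CDR-length filtered. A clone's polyreactivity label is that of its gate of origin.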
In the case of “QVQLVESGGGLVQAGGSLRLSCAASGSIFLDYAMGWYRQAPGKERELVAANTSDGSTYYADSVKGRFTISRDKAKNTVYLQMNSLKPEDTAVYYCAVQDTSYDVQYSYGYWGQGTHVTVSS”, the “polyreactivity (PSR sort gate)” value is “low polyreactivity”.

On to “QVQLVESGGGLVQAGGSLRLSCAASGSIFLFYAMGWYRQAPGKERELVAAISYSGGRTYYADSVKGRFTISRDNAKNTVYLQMNSLNPEDTAVYYCAAVGYSSYPYRRFDYWGQGTQVTVSS”, for which the “polyreactivity (PSR sort gate)” value is listed as “high polyreactivity”.

As for “QVQLVESGGGLVQAGGSLRLSCAASGSIFLHNAMGWYRQAPGTERELVAGITSSGTSTYYADSVKGRFTISRDIAKNTVYLQMNSLKPEDTAVYYCAAYRYGSRGGYWGQGTHVTVSS”, the “polyreactivity (PSR sort gate)” value is “high polyreactivity”.

On to “QVQLVESGGGLVQAGGSLRLSCAASGSIFLIYAMGWYRQAPGKERELVAAINYSGVRTYYADSEKGRFTISRDYAKNTLYLPMNSLKPEETAVYYCAPDATSYSYRYNYWGQGTQVTVSS”, for which the “polyreactivity (PSR sort gate)” value is “high polyreactivity”.

With “QVQLVESGGGLVQAGGSLRLSCAASGSIFLNNAMGWYRQAPGKERELVAAITRNVGSTYYADSVKGRFTISRDNAKNTVYLQMNSLKPEDTAVYYCAADRRRRYDYWGQGTQVTVSS”, the “polyreactivity (PSR sort gate)” value is given as “low polyreactivity”.

With “QVQLVESGGGLVQAGGSLRLSCAASGSIFLPNAMGWYRQAPGKERELVAVITGGGSTKYADSVKGRFTISRDNAKNTVYLQMNSLKPEDTAVYYCNAQSPVDPSCDYWGRGTQVTVSS”, the “polyreactivity (PSR sort gate)” value was “low polyreactivity”.

Take “QVQLVESGGGLVQAGGSLRLSCAASGSIFLQYAMGWYRQAPGKERELVAAITTSGRTYYADSVKGRFTISRDNAKYTVYLQMNSLKPEDTAVYYCAATWRYGYYAYYYWGQGTQVTVSS”: the “polyreactivity (PSR sort gate)” value is “high polyreactivity”.

In the case of “QVQLVESGGGLVQAGGSLRLSCAASGSIFLRNAMGWYRQAPGKERALVAAISWGGRTYYADSVKGRFTISRDNAKNTVYLQMNSLKPEDTAVYYCAADGTWVRSPHFYYWGQGTQVTVSS”, the “polyreactivity (PSR sort gate)” value is “low polyreactivity”.

As for “QVQLVESGGGLVQAGGSLRLSCAASGSIFLRNAMGWYRQAPGKERELVAAISWGGRTYYADSVKGRFTISRDNAKNTVYLQLNSLKPEDRAVYYCSADGTWVRSPHFYYWGQGTQVTVSS”, the “polyreactivity (PSR sort gate)” value is “low polyreactivity”.

In the case of “QVQLVESGGGLVQAGGSLRLSCAASGSIFLRYAMGWYRQAPGKERELVATISKSGGSTYYADSVKGRFTISRDNAKNTVYLQMNSLKPEDTAVYYCAAGYVYFQTYYYWGQGTQVTVSS”, the “polyreactivity (PSR sort gate)” value is reported as “high polyreactivity”.

Take “QVQLVESGGGLVQAGGSLRLSCAASGSIFLRYAMGWYRQAPGKERELVATITSGGRTKYADSVKGRFTISRDNAKNTVYLQMNSLKPEDTAVYYCNAKTQSLKRSTFNYWGQGTQVTVSS”: the “polyreactivity (PSR sort gate)” value was “low polyreactivity”.

As to “QVQLVESGGGLVQAGGSLRLSCAASGSIFLRYGMGWYRQAPGKERELVAAISRGGGSTYYADSVKGRFTISRDNAKNTVYLQMNSLKPEDTAVYYCNKASYRYSSDYDYWGQGTQVTVSS”, the “polyreactivity (PSR sort gate)” value is reported as “high polyreactivity”.

With “QVQLVESGGGLVQAGGSLRLSCAASGSIFLSNAMGWYRQAPGKERELVASISGSGSTNYADSVKGRFTISRDNAKNTVYLQMNSLKPEDTAVYYCAAYQRYDSVTGARYEYDYWGQGTQVTVSS”, the “polyreactivity (PSR sort gate)” value was “low polyreactivity”.

As for “QVQLVESGGGLVQAGGSLRLSCAASGSIFLSYAMGWYRQAPGKERELVAAISRRGVRTYYADSVKGRFTISRDNAKNTVYLQMNSLKPEDTAVYYCAKDAYFPPWTYGSIFGLYDYWGQGTQVTVSS”, the “polyreactivity (PSR sort gate)” value is listed as “low polyreactivity”.

Take “QVQLVESGGGLVQAGGSLRLSCAASGSIFLVYAMGWYRQAPGKERELVAAISSDGDDTYYADSVKGRFTISRDNAKNTVYLQMNSLKPEDTAVYYCAAESYTYYADYGYGYWGQGTQVTVSS”: the “polyreactivity (PSR sort gate)” value is reported as “high polyreactivity”.

For “QVQLVESGGGLVQAGGSLRLSCAASGSIFLVYAMGWYRQAPGKERELVAGITSDDSTNYADSVKGRFTISRDNAKNTVYLQINRLKPEDTAVYYCAKDSLGLYIVDLGYWGQGTQVTVSS”, the “polyreactivity (PSR sort gate)” value was “low polyreactivity”.

For “QVQLVESGGGLVQAGGSLRLSCAASGSIFLVYSMGWYRQAPGKERELVAAISRSGRTYADSVKGRFTISRDNAKNTVYLQMNSLKPEDTAVYYCNKLAVRPGYGSTYDYWGQGTQVTVSS”, the “polyreactivity (PSR sort gate)” value was “high polyreactivity”.

Regarding “QVQLVESGGGLVQAGGSLRLSCAASGSIFLWNAMGWYRQAPGKERELVAAITWRGGSTYYADSVKGRFTISRDNAKNTVYLQMNSLKPEDTAVYYCAADSYDWMDYWGQGTQVTVSS”, the “polyreactivity (PSR sort gate)” value is given as “low polyreactivity”.

Turning to “QVQLVESGGGLVQAGGSLRLSCAASGSIFLWYAMGWSRQAPGKERELVAALTYSGGTTYYADSVKGRFTISRDNAKNTVYLQLNSLKPEDTAVYYCAKRTAVWTSGGYRKRDYWGQGTQVTVSS”, the “polyreactivity (PSR sort gate)” value is “high polyreactivity”.

For the sequence “QVQLVESGGGLVQAGGSLRLSCAASGSIFLWYDMGWYRQAPGKEREFVASITRSGGSTYYADSVKGRFTISRDNAKNTVYLQMNSLKPEDTAVYYCAAGRRSSWRYYLWYDYWGQGTQVTVSS”, the “polyreactivity (PSR sort gate)” value is reported as “low polyreactivity”.

For “QVQLVESGGGLVQAGGSLRLSCAASGSIFLYNAMGWYRQAPGKERELVAAISKSGGSTYYADSVKGRFTISRDNAKNTVYLQMNSLKPEDTAVYYCAAGYGRRIRYGSEYDYWGQGTLVTVSS”, the “polyreactivity (PSR sort gate)” value is on record as “low polyreactivity”.

Turning to “QVQLVESGGGLVQAGGSLRLSCAASGSIFLYYAMGWYRQAPGKERELVAAISQNGGSTYYADSVKGRFTISRDNAKNTVYLQMNSLKPEDTAVYYCNKYSFALRYDYWGQGTQVTVSS”, the “polyreactivity (PSR sort gate)” value is recorded as “low polyreactivity”.

As to “QVQLVESGGGLVQAGGSLRLSCAASGSIFLYYAMGWYRQAPGKERELVAAISYSGASTYYADSVKGRFTISRDNAKNTVYLQMNSLKPEDTAVYYCARDYGQYVGEGCYWGQGTQVTVSS”, the “polyreactivity (PSR sort gate)” value is on record as “low polyreactivity”.

Regarding “QVQLVESGGGLVQAGGSLRLSCAASGSIFLYYAMGWYRQAPGKERELVAVITSGGITNYADSVKGRFTISRDNAKNTFYLQMNSLKPEDTAVYYCNKEYYITYFDLVYSSLDYWGQGTQVTVSS”, the “polyreactivity (PSR sort gate)” value is listed as “low polyreactivity”.

Regarding “QVQLVESGGGLVQAGGSLRLSCAASGSIFLYYAMGWYRQAPGNERELVAGINRVGSTNYADSVKGRFTISRDNAKNTVYLQMNSLKPEDTAVYYCNKRATRSRRRGYWGQGTQVTVSS”, the “polyreactivity (PSR sort gate)” value is “low polyreactivity”.

Take “QVQLVESGGGLVQAGGSLRLSCAASGSIFNANAMGLYIQAPGKERELVASISGGAGSTYYADSVKGRFTISRDNAKNTVYLQMNSLKPEDTAVYYCNARWQEPLKYDYWGQGTQVTVSS”: the “polyreactivity (PSR sort gate)” value is on record as “low polyreactivity”.

Regarding “QVQLVESGGGLVQAGGSLRLSCAASGSIFNAYDMGWYRQAPGKERELVAGISSSDSTYYADSVKGRFTISRDNAKNTVYLQMNSLIPEDTAVYYCAADPVFAAAYIHLYGIYDSWGQGTQVTVSS”, the “polyreactivity (PSR sort gate)” value is on record as “low polyreactivity”.

In the case of “QVQLVESGGGLVQAGGSLRLSCAASGSIFNGNDMGWYRQAPGKERELVASITSNGGRTYYADSVKGRVTISRDNAKNTVYLQMNSLKPEDTAVYYCAAGYYILYIWKFDYWGQGTQVTVSS”, the “polyreactivity (PSR sort gate)” value is reported as “high polyreactivity”.

With “QVQLVESGGGLVQAGGSLRLSCAASGSIFNGYAMGWYRQAPGKERELVAAISWSGVGTYYADSVKGRFTISRDNAKNTVYLQMNSLKPEDTAVYYCAAALPLVDFYDYWGQGTQVTVSS”, the “polyreactivity (PSR sort gate)” value was “low polyreactivity”.

In the case of “QVQLVESGGGLVQAGGSLRLSCAASGSIFNGYVMGWYRQAPGKERELVAAISSGGRTYYADSVKGRFTISRDNAKNTVYLQMNSLKPEDTAVYYCNAYWLHYPSRVRKITAYDYWGQGTQVTVSS”, the “polyreactivity (PSR sort gate)” value is on record as “low polyreactivity”.

In the case of “QVQLVESGGGLVQAGGSLRLSCAASGSIFNINVMGWYRQAPGKEREMVAAINSGTSTYYADSVKGRFTISRDNAKNTVYLQMNSLKPEDTAVYYCAARNLFTGRRLFYYWGQGTQVTVSS”, the “polyreactivity (PSR sort gate)” value is reported as “low polyreactivity”.

Take “QVQLVESGGGLVQAGGSLRLSCAASGSIFNPNAMGWYRQAPGKETELVAAISWISGRTYYADSGKGRFTISRDNAKNTVYLQMISLKTEDTAVYYCAARYPLTQSKYYYWGQWTQVTVSS”: the “polyreactivity (PSR sort gate)” value is “high polyreactivity”.

In the case of “QVQLVESGGGLVQAGGSLRLSCAASGSIFNPYTMGWYRQAPGKEREMVAAISASGGSTYYADSVKGRFTISRDNAKNTVYLQMNSLKPEDTAVYYCNVYRITRHSYNFGFDYWGQGTQVTVSS”, the “polyreactivity (PSR sort gate)” value is recorded as “low polyreactivity”.

For “QVQLVESGGGLVQAGGSLRLSCAASGSIFNRNAMGWYRQAPGKERELVAAISNSGARTYYADSVKGRFTISRDNAKNTVYLQMNSLKPEDTAVYYCNDVRRRSKLYNYWGQGTQVTVSS”, the “polyreactivity (PSR sort gate)” value is on record as “high polyreactivity”.

As to “QVQLVESGGGLVQAGGSLRLSCAASGSIFNRYAMGWFRQAPGKERELVAAISRRGAGTYYADSVKGRFTISRDNAKNTVYLQMNSLKPEDTAVYYCAATLSYTGSKRYDYWGQGTQVTVSS”, the “polyreactivity (PSR sort gate)” value is “high polyreactivity”.

In the case of “QVQLVESGGGLVQAGGSLRLSCAASGSIFNRYAMGWYRQAPGKEREIVAAISTHTGTTYYADSVKGRFTISRDNAKNTVYLQMNSLKPEDTAVYYCDKRSRYGYGKSYDYWGQGTQVTVSS”, the “polyreactivity (PSR sort gate)” value is listed as “high polyreactivity”.

As for “QVQLVESGGGLVQAGGSLRLSCAASGSIFNRYTMGWYRQAPGKERELVAAISKRGGSTYYADSVKGRFTISRDNAKNTVYLQMNSLKPEDTAVYYCAAAGYHSGKGGGYWGQGTQVTVSS”, the “polyreactivity (PSR sort gate)” value is on record as “high polyreactivity”.

For “QVQLVESGGGLVQAGGSLRLSCAASGSIFNSYAMGWSRQAPGKERELVAAISSGGGRTYYADSVKGRFTISRDNAKNTVYLQMNSLKPEDTAVYYCNARAVYRFDYWGQGTQVTVSS”, the “polyreactivity (PSR sort gate)” value is listed as “high polyreactivity”.

Take “QVQLVESGGGLVQAGGSLRLSCAASGSIFNTIALGWYRQAPGKESELVASISSDGGTNYADSLKGRFTISRDNAKNTVYLQMNRLKPEDTAVYACATTQEYSGQRTPGYDYWGQVTQVTVSS”: the “polyreactivity (PSR sort gate)” value is on record as “low polyreactivity”.

In the case of “QVQLVESGGGLVQAGGSLRLSCAASGSIFNTYAMGWYRQAPGKERELVAAISRSGDSTYYADSVKGRFTISRDNAKNTVYVQMNSLKPEDSAVYYCATGRTDHGYYYWGQGTQVTVSS”, the “polyreactivity (PSR sort gate)” value is reported as “high polyreactivity”.

Regarding “QVQLVESGGGLVQAGGSLRLSCAASGSIFNTYAMGWYRQAPGKERELVAAITWSGGSTYYADSVKGRFTISRDNAKNTVYLQRNSLKPEDTAVYDCAARQRRQSYWGQGTQVTVSS”, the “polyreactivity (PSR sort gate)” value is given as “high polyreactivity”.
